Columns and labels:
[1] = biological target: reaction centre-light harvesting 1 (RC-LH1) core complex, monomer, from Rba. sphaeroides strain DX13 (Rhodobacter sphaeroides 2.4.1) (UniProt P0C0Y8)
[2] = biological target: reaction centre-light harvesting 1 (RC-LH1) core complex, monomer, from Rba. sphaeroides strain DX13 (Rhodobacter sphaeroides 2.4.1) (UniProt P0C0Y8); remark: listed apart in the source

K M of redox carrier oxidation by RC-LH1, steady-state turnover (0.125 µM RC-LH1, 50 µM UQ-2, 50 mM Tris-HCl pH 7.5, 100 mM NaCl, 0.03% β-DDM, 25°C) [1] [µM] | V max of redox carrier oxidation by RC-LH1, steady-state turnover (0.125 µM RC-LH1, 50 µM UQ-2, 50 mM Tris-HCl pH 7.5, 100 mM NaCl, 0.03% β-DDM, 25°C) [1] [e^−/RC/s] | cyt c 2 oxidation rate by RC-LH1 against NaCl (series up to 500 mM; optimum 100 mM in Table 1): activity left at 500 mM NaCl, percent of the maximum (% of maximum activity) [2] | cyt c 6 oxidation rate by RC-LH1 against NaCl (0-800 mM): optimum [NaCl] [1] [mM] | cyt c oxidation rate by RC-LH1 against NaCl (series up to 500 mM; observed optimum 50 mM): activity lost at 500 mM NaCl (% of activity lost) [2] | iso c 2 oxidation rate by RC-LH1 against NaCl (series up to 500 mM; optimum 50 mM in Table 1): activity left at 500 mM NaCl, percent of the maximum (% of maximum activity) [2] | Pc oxidation rate by RC-LH1 against NaCl (0-800 mM): optimum [NaCl] [1] [mM] | Substance
6.8 | 293 | 40 |  |  |  |  | cytochrome c 2 (cyt c 2) of Rba. sphaeroides (from UniProt P0C0X8 1-124) (natural protein)
66.3 | 37.8 |  | 700 |  |  |  | cytochrome c 6 (cyt c 6) of Synechocystis sp. PCC 6803 (from UniProt P46445 36-120) (natural protein)
 |  |  |  | 90 |  |  | cytochrome c (cyt c) from horse heart mitochondria (from UniProt P00004 1-105) (natural protein)
5.88 | 230 |  |  |  | 20 |  | isocytochrome c 2 (iso c 2) of Rba. sphaeroides (natural protein)
209 | 7.92 |  |  |  |  | 700 | plastocyanin (Pc) of Synechocystis sp. PCC 6803, C-terminally StrepII-tagged (from UniProt P21697 29-126) (natural protein)
